B1: WDFY1 (parent)
chain: LLIPKEDGVITASEDRTIRVWLKR
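Also: lentivirally expressed fusions sorted by FACS into six bins by GFP to DsRed ratio, PSI derived from sequencing read proportions per bin multiplied by bin number.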

The variants in the data set derive from B1. Description: protein stability index of a GFP-peptide fusion (GPS, HEK-293T) (PSI 1-6); higher = more stable. The settings on record: c terminus: a fixed tail appended.
Consider LLIPKEDGVITASEDRTLRVWLKR [I18L], for which the protein stability index came to 2.29. For the variant LLIPKEDGVITASEDRTPRVWLKR [I18P], the protein stability index was 3.15. As for LLIPKEDGVITASEDRTHRVWLKR [I18H], the figure is 2.34; as for LLIPKEDGVITASEDRTMRVWLKR [I18M], 1.76; as for LLIPKEDGVITASEDRTTRVWLKR [I18T], 2.89. In the case of LLIPKEDGVITASEDRTGRVWLKR [I18G], the protein stability index was 2.93. On to LLIPKEDGVITASEDRTKRVWLKR [I18K], for which the protein stability index stood at 1.74.

Take LLIPKEDGVITASEDRTERVWLKR [I18E]: the protein stability index was 2.52. Turning to LLIPKEDGVITASEDRTCRVWLKR [I18C], the protein stability index turned out to be 2.07.

LLIPKEDGVITASEDRTRRVWLKR [I18R]: the protein stability index was determined as 3.55.

For LLIPKEDGVITASEDRTYRVWLKR [I18Y], the protein stability index was 2.04.

With LLIPKEDGVITASEDRTQRVWLKR [I18Q], the protein stability index was 3.97. As for LLIPKEDGVITASEDRTSRVWLKR [I18S], the figure is 2.94. As for LLIPKEDGVITASEDRTVRVWLKR [I18V], the figure is 2.61.

With LLIPKEDGVITASEDRMIRVWLKR [T17M], the protein stability index was 1.73. Take LLIPKEDGVITASEDREIRVWLKR [T17E]: the protein stability index was 1.81. The same measure for LLIPKEDGVITASEDRLIRVWLKR [T17L]: 1.82; for LLIPKEDGVITASEDRCIRVWLKR [T17C]: 2.1.

Regarding LLIPKEDGVITASEDRPIRVWLKR [T17P], the protein stability index is 2.51. As for LLIPKEDGVITASEDRVIRVWLKR [T17V], the figure is 1.71; as for LLIPKEDGVITASEDRAIRVWLKR [T17A], 2.74. As for LLIPKEDGVITASEDRFIRVWLKR [T17F], the figure is 2.12; as for LLIPKEDGVITASEDRHIRVWLKR [T17H], 3.16.

Regarding LLIPKEDGVITASEDRQIRVWLKR [T17Q], the protein stability index was determined as 2.02. The same measure for LLIPKEDGVITASEDRYIRVWLKR [T17Y]: 1.33; for LLIPKEDGVITASEDRGIRVWLKR [T17G]: 1.39; for LLIPKEDGVITASEDRSIRVWLKR [T17S]: 1.8. The same measure for LLIPKEDGVITASEDRRIRVWLKR [T17R]: 2.29. For the variant LLIPKEDGVITASEDRNIRVWLKR [T17N], the protein stability index was found to be 2.77. As for LLIPKEDGVITASEDRIIRVWLKR [T17I], the figure is 1.61; as for LLIPKEDGVITASEDRDIRVWLKR [T17D], 1.94. As for LLIPKEDGVITASEDRWIRVWLKR [T17W], the figure is 2.16; as for LLIPKEDGVITASEKRTIRVWLKR [D15K], 1.41; as for LLIPKEDGVITASEMRTIRVWLKR [D15M], 1.55. As for LLIPKEDGVITASETRTIRVWLKR [D15T], the figure is 1.19. As for LLIPKEDGVITASEVRTIRVWLKR [D15V], the protein stability index amounted to 1.37.

LLIPKEDGVITASEERTIRVWLKR [D15E]: the protein stability index is 1.66. Take LLIPKEDGVITASEPRTIRVWLKR [D15P]: the protein stability index came out at 2.17.

In the case of LLIPKEDGVITASEQRTIRVWLKR [D15Q], the protein stability index is 2.32.

On to LLIPKEDGVITASECRTIRVWLKR [D15C], for which the protein stability index was 1.1. As for LLIPKEDGVITASEGRTIRVWLKR [D15G], the protein stability index turned out to be 2.09. As for LLIPKEDGVITASEYRTIRVWLKR [D15Y], the figure is 2.97; as for LLIPKEDGVITASEDYTIRVWLKR [R16Y], 1.41; as for LLIPKEDGVITASEDPTIRVWLKR [R16P], 2.37.

Consider LLIPKEDGVITASEDHTIRVWLKR [R16H], for which the protein stability index turned out to be 1.6. As for LLIPKEDGVITASEDTTIRVWLKR [R16T], the protein stability index turned out to be 1.65.

As for LLIPKEDGVITASEDGTIRVWLKR [R16G], the protein stability index was 1.89. The same measure for LLIPKEDGVITASEDLTIRVWLKR [R16L]: 2.22; for LLIPKEDGVITASEDMTIRVWLKR [R16M]: 2.19; for LLIPKEDGVITASEDSTIRVWLKR [R16S]: 1.7.

For the variant LLIPKEDGVITASEDITIRVWLKR [R16I], the protein stability index was 1.43. As for LLIPKEDGVITASEDDTIRVWLKR [R16D], the protein stability index turned out to be 2.6.

With LLIPKEDGVITASEDCTIRVWLKR [R16C], the protein stability index amounted to 1.6. In the case of LLIPKEDGVITASEDKTIRVWLKR [R16K], the protein stability index was 1.74. The same measure for LLIPKEDGVITASEDQTIRVWLKR [R16Q]: 2.2; for LLIPKEDGVITASEDVTIRVWLKR [R16V]: 1.95; for LLIPKEDGVITASEDETIRVWLKR [R16E]: 2.81. Regarding LLIPKEDGVITASEDNTIRVWLKR [R16N], the protein stability index amounted to 3.22. With LLIPKEDGVITASEDATIRVWLKR [R16A], the protein stability index turned out to be 1.92. LLIPKEDGVITASPDRTIRVWLKR [E14P]: the protein stability index worked out at 2.62. The same measure for LLIPKEDGVITASWDRTIRVWLKR [E14W]: 1. LLIPKEDGVITASRDRTIRVWLKR [E14R]: the protein stability index came out at 2.78. The same measure for LLIPKEDGVITASQDRTIRVWLKR [E14Q]: 2.14; for LLIPKEDGVITASMDRTIRVWLKR [E14M]: 2.62; for LLIPKEDGVITASKDRTIRVWLKR [E14K]: 1.93.

On to LLIPKEDGVITASGDRTIRVWLKR [E14G], for which the protein stability index amounted to 2.29. As for LLIPKEDGVITASYDRTIRVWLKR [E14Y], the figure is 1.32; as for LLIPKEDGVITASVDRTIRVWLKR [E14V], 1.9; as for LLIPKEDGVITASIDRTIRVWLKR [E14I], 2.76. On to LLIPKEDGVITASADRTIRVWLKR [E14A], for which the protein stability index came to 1.71. The same measure for LLIPKEDGVITASCDRTIRVWLKR [E14C]: 2.41; for LLIPKEDGVITASTDRTIRVWLKR [E14T]: 1.73. In the case of LLIPKEDGVITASDDRTIRVWLKR [E14D], the protein stability index was 3.39.

Regarding LLIPKEDGVITASFDRTIRVWLKR [E14F], the protein stability index amounted to 2.37. The same measure for LLIPKEDGVITASEDRTICVWLKR [R19C]: 2.5; for LLIPKEDGVITASEDRTIGVWLKR [R19G]: 1.8; for LLIPKEDGVITASEDRTIEVWLKR [R19E]: 1.92. For the variant LLIPKEDGVITASEDRTIAVWLKR [R19A], the protein stability index worked out at 2.03. As for LLIPKEDGVITASEDRTINVWLKR [R19N], the figure is 1.83; as for LLIPKEDGVITASEDRTIVVWLKR [R19V], 2.21. As for LLIPKEDGVITASEDRTIKVWLKR [R19K], the figure is 2.09; as for LLIPKEDGVITASEDRTITVWLKR [R19T], 1.7. On to LLIPKEDGVITASEDRTIPVWLKR [R19P], for which the protein stability index amounted to 2.45. As for LLIPKEDGVITASEDRTISVWLKR [R19S], the figure is 1.91.

Regarding LLIPKEDGVITASEDRTIDVWLKR [R19D], the protein stability index amounted to 2.28. Turning to LLIPKEDGVITASEDRTIMVWLKR [R19M], the protein stability index came out at 2.44. The same measure for LLIPKEDGVITASEDRTILVWLKR [R19L]: 1.31; for LLIPKEDGVITATEDRTIRVWLKR [S13T]: 2.2; for LLIPKEDGVITAPEDRTIRVWLKR [S13P]: 1.66. Take LLIPKEDGVITAYEDRTIRVWLKR [S13Y]: the protein stability index amounted to 2.08.

LLIPKEDGVITAQEDRTIRVWLKR [S13Q]: the protein stability index amounted to 3.07. For the variant LLIPKEDGVITAMEDRTIRVWLKR [S13M], the protein stability index worked out at 1.45. On to LLIPKEDGVITAVEDRTIRVWLKR [S13V], for which the protein stability index amounted to 2.32. As to LLIPKEDGVITANEDRTIRVWLKR [S13N], the protein stability index was 1.99.
